EC50 and absorbance data for three molecules are collected here from patent US20260166139A1.

Experiment [1] deals with murine CTLA4 (murine) (UniProt P09793). The experiment in a line: ELISA on coated CTLA4, source Mouse. On the technique in general: In an ELISA, binding on a coated surface is turned into a signal by an enzyme label.
Experiment [2] has the same target. The experiment is described as follows: ELISA, coat murine CTLA4 0.5 ug/ml; antibody 0.001 ug/ml.
For experiment [3] the target is unchanged. The experiment is described as follows: ELISA, coat murine CTLA4 0.5 ug/ml; antibody 0 ug/ml (blank).
Experiment [4] shares this target. The experiment is described as follows: ELISA, coat murine CTLA4 0.5 ug/ml; antibody 1 ug/ml.
Experiment [5] shares this target. The experiment is described as follows: ELISA, coat murine CTLA4 0.5 ug/ml; antibody 0.1 ug/ml.
Experiment [6] shares this target. The experiment in a line: ELISA on coated CTLA4, source taken as Mouse; second unlabelled line under 8D2 / Mouse; the run in which 10D1 gave […] and 11.2.1 was not measured.
Experiment [7] shares this target. The experiment is described as follows: ELISA, coat murine CTLA4 0.5 ug/ml; antibody 0.3 ug/ml.
Experiment [8] shares this target. The experiment is described as follows: ELISA, coat murine CTLA4 0.5 ug/ml; antibody 0.003 ug/ml.
Experiment [9] shares this target. The experiment in a line: ELISA, coat murine CTLA4 0.5 ug/ml; antibody 0.01 ug/ml.
Experiment [10] has the same target. The experiment is described as follows: ELISA, coat murine CTLA4 0.5 ug/ml; antibody 0.03 ug/ml.
For experiment [11] the target is unchanged. The experiment in a line: ELISA on coated CTLA4, source taken as Mouse.

Several values for one entry are separate records, joined by “and”; a condition that tells them apart may be missing. Equal values may be shown once.

B1: humanized antibody 8D2H1L1 (antibody, V domains shown)
VH: EVQLVESGGGLVQPGGSMRLSCAASGFTFSDNWMNWVRQAPGKGLEWLAQIRNKPYNYETYYSDSVKGRFTISRDDSKNSVYLQMNSLKTEDTGVYYCTAQFAYWGQGTLVTVSS
VL: DIQMTQSPSSLSASVGDRVTITCRTSENIYGGLNWYQRKQGKSPKLLIYGATNLASGMSSRFSGSGSGTDYTLKISSLHPDDVATYYCQNVLRSPFTFGSGTKLEIK
As a reminder, the EC50 is the concentration giving half of the maximal effect. Lower therefore signals a more potent agent. As to B1, the EC50 in experiment [1] stood at 25 pM.

B2: monoclonal antibody 8D2 (antibody, V domains shown)
VH: EVKLDETGGGLVQPGRPMKLSCVASGFTFSDNWMNWVRQSPEKGLEWLAQIRNKPYNYETYYSDSVKGRFTISRDDSKSSVYLQMNNLRGEDMGIYYCTAQFAYWGQGTLVTVSA
VL: DIQMTQSPASLSASVGETVTITCGTSENIYGGLNWYQRKQGKSPQLLIFGATNLADGMSSRFSGSGSGRQYSLKISSLHPDDVATYYCQNVLRSPFTFGSGTKLEI
On to B2, for which the absorbance at 450 nm in experiment [2] is 0.358 and 0.355; in [3], 0.063 and 0.052; in experiment [4], 2.82 and 2.68; in experiment [5], 2.75 and 2.72; in experiment [7], 2.81 and 2.76; in experiment [8] it was 0.784 and 0.76. Besides, the absorbance at 450 nm is 1.61 and 1.56 in experiment [9]; 2.34 and 2.38 in experiment [10]. The results for the concentration for a half-maximal effect (EC50) in experiment [1] and in experiment [6] were 15 pM and 71 pM, respectively.

B3: 8D2 recombinant antibody, 8D2(Re) (antibody, V domains shown)
VH: EVKLDETGGGLVQPGRPMKLSCVASGFTFSDNWMNWVRQSPEKGLEWLAQIRNKPYNYETYYSDSVKGRFTISRDDSKSSVYLQMNNLRGEDMGIYYCTAQFAYWGQGTLVTVSA
VL: DIQMTQSPASLSASVGETVTITCGTSENIYGGLNWYQRKQGKSPQLLIFGATNLADGMSSRFSGSGSGRQYSLKISSLHPDDVATYYCQNVLRSPFTFGSGTKLEI
As to B3, the absorbance at 450 nm in experiment [2] is 0.315 and 0.321; in [3] it was 0.053 and 0.046; in [4], 2.67 and 2.77; in experiment [5], 2.8 and 2.69; in [7], 2.69 and 2.73; in [8] it was 0.662 and 0.674. The absorbance at 450 nm is 1.4 and 1.45 in experiment [9]; 2.31 and 2.26 in experiment [10]. The results for the EC50 in experiment [11] and in experiment [1] were 85 pM and 15 pM, respectively.
